Experimental findings from publication PMC4041450 are described below.

For data set [1], the target named is T1, SHARP R2-3-4h (SHARP-RRM) (Homo sapiens, UniProt Q96T58 335-620).
T1 sequence: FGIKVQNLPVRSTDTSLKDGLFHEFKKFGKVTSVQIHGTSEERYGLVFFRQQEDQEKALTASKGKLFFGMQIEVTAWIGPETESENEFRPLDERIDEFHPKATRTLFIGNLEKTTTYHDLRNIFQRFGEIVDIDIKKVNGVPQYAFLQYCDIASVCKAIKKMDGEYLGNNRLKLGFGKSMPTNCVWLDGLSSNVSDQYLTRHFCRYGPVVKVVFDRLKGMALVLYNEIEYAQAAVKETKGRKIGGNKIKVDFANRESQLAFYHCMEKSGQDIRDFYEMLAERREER
In words: competition.

The target in data set [2] is T2, GST-His-SHARP R3-4h (Homo sapiens, UniProt Q96T58 436-620).
T2 sequence: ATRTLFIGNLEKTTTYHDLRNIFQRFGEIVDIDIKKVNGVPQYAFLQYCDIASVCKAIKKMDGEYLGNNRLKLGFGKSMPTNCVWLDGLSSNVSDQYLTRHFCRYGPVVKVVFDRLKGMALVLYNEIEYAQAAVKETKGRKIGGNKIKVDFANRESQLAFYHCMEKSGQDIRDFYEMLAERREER
In words: UV crosslinking.

Turning to AAAAAAAAAAAAAAA (ssRNA) [A15], the binding result in data set [1] is on record as “no binding”.

B1: SRA RNA H12-H13 extended (structured_RNA)
RNA: GGGAGCAGGUAUGUGAUGACAUCAGCCGACGCCUGGCACUGCUGCAGGAACAGUGGGCUGGAGGAAAGUUGUCAAUACCUGUAAGAGACCGAAUUCACUGGCCGUCGUUUUACAACGUCGUGACUGGGAAAAC
In the case of B1, the binding result in data set [2] was “binds”.
